Test [1] addresses purified human fibrinogen (human) (UniProt P02671). The test can be described thus: SPR; Reichert-4 SR7500DC; human fibrinogen (0.1 μM, sodium acetate pH 5.5) covalently immobilised on a PEG gold chip; analytes in PBS, 30 μl/min, 3 min association and dissociation; KD from response at equilibrium against concentration.
Test [2] has the same target. Nature of the test: ELISA; competition: immobilised fibrinogen (0.1 μM), 0 to 100 μM lysinSM1, lysin102-198 or lysin1-102, and 100 nM plasminogen; bound plasminogen detected with anti-plasminogen antibody. (In general: ELISA stands for enzyme-linked immunosorbent assay.)
Test [3] has as its target MalE-fibrinogen Aα534-610 (variant 8) (human). Nature of the test: SPR; lysinSM1, lysin102-198 or plasminogen on recombinant variant 8 (Aα534-610); otherwise as for fibrinogen.
Test [4] shares this target. Nature of the test: ELISA; fibrinogen Aα variants (0.1 μM in PBS) immobilised in 96-well plates; FLAG-lysin or plasminogen in PBS-T over a range of concentrations, 1 h 37°C; anti-FLAG or anti-plasminogen; non-linear regression, apparent KD.
The target in test [5] is T1, purified human fibrinogen (human, UniProt P02671 36-866; P02675 45-491; P02679 27-453, plasma fibrinogen hexamer (AαBβγ)2, 29 disulfides, glycosylated; fibrinopeptides A and B present; Aα taken as the circulating 610-residue form, Bβ starts at pyroGlu, γ as the major γA form (411 aa)). The test can be described thus: SPR; plasminogen (100 nM) over immobilised fibrinogen after PBS, and again after bound lysinSM1 was removed with glycine buffer pH 2.0. The settings on record: both partners purified. (In general: In SPR one partner is held on a chip, and binding of the other changes the refractive index at the surface.)
T1 sequence (P02671 36-866, chain 1 of 3): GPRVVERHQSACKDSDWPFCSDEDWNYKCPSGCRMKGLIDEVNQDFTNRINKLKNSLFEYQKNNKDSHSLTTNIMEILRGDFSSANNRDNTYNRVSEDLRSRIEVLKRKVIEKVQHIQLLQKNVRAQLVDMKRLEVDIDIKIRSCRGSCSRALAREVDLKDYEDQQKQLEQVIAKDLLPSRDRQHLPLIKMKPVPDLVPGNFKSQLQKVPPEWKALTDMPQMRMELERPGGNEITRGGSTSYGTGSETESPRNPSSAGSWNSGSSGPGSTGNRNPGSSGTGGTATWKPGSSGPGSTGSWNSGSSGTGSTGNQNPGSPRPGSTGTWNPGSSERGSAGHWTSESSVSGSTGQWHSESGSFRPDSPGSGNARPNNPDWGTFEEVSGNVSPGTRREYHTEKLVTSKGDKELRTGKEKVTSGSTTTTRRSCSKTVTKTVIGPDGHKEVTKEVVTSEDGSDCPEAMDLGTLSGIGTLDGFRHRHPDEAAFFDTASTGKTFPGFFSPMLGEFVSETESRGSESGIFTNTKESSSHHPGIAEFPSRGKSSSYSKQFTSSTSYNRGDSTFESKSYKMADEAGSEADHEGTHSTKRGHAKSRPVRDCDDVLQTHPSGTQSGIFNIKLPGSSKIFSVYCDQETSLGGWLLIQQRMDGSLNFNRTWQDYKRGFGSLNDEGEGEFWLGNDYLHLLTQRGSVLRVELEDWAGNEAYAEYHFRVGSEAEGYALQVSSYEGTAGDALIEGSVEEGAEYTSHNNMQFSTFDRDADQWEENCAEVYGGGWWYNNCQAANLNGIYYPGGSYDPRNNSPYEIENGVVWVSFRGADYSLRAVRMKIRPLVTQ
T1 sequence (P02675 45-491, chain 2 of 3): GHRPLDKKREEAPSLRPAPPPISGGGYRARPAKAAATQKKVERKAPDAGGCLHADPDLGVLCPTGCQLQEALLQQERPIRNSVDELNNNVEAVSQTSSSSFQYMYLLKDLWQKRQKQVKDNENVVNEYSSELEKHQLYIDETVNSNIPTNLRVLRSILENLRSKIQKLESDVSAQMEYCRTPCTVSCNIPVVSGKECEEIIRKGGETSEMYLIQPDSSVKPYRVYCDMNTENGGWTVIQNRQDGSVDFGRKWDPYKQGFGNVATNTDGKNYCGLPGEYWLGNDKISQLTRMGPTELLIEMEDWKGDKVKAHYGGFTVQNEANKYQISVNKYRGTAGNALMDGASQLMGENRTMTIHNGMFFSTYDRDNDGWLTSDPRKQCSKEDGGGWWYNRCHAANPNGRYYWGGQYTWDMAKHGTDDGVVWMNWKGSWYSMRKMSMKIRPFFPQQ
T1 sequence (P02679 27-453, chain 3 of 3): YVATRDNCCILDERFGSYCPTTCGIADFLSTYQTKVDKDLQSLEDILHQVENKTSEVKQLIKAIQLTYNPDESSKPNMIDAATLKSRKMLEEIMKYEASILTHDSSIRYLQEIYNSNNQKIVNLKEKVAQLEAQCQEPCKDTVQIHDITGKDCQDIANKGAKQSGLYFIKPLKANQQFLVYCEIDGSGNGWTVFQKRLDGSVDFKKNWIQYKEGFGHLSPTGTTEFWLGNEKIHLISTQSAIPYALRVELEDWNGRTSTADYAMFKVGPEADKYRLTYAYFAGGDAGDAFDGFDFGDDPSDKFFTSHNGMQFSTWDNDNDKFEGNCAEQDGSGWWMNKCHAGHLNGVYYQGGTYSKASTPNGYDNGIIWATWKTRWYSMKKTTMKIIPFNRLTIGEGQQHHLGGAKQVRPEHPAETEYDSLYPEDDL

Test [6] addresses MalE-fibrinogen Aα248-376 (variant 5) (human). Nature of the test: ELISA; fibrinogen Aα variants (0.1 μM in PBS) immobilised in 96-well plates; FLAG-lysin or plasminogen in PBS-T over a range of concentrations, 1 h 37°C; anti-FLAG or anti-plasminogen; non-linear regression, apparent KD.
Test [7] concerns the target T1, purified human fibrinogen. The test can be described thus: SPR; Reichert-4 SR7500DC; human fibrinogen (0.1 μM, sodium acetate pH 5.5) covalently immobilised on a PEG gold chip; analytes in PBS, 30 μl/min, 3 min association and dissociation; KD from response at equilibrium against concentration. To be noted: both partners purified.

purified human fibrinogen (human), sequence (P02671 36-866, chain 1 of 3): as the sequence (P02671 36-866, chain 1 of 3) above
purified human fibrinogen (human), sequence (P02675 45-491, chain 2 of 3, further chain): as the sequence (P02675 45-491, chain 2 of 3) above
purified human fibrinogen (human), sequence (P02679 27-453, chain 3 of 3, further chain): as the sequence (P02679 27-453, chain 3 of 3) above

With “recombinant FLAG-tagged lysinSM1 (natural protein)”, the Kd in test [1] amounted to 31.5 µM; in test [3], 32.3 µM. Also, the percent inhibition of plasminogen binding to immobilised fibrinogen in test [2] was > 75%.
With “FLAG-tagged lysin102-198 (domain or fragment)”, the Kd in test [1] was 23.2 µM; in test [4], 48 µM; in test [3], 17.3 µM. The percent inhibition of plasminogen binding to immobilised fibrinogen in test [2] is > 75%.

B1: human plasminogen (natural protein, UniProt P00747 20-810, looked up)
chain: EPLDDYVNTQGASLFSVTKKQLGAGSIEECAAKCEEDEEFTCRAFQYHSKEQQCVIMAENRKSSIIIRMRDVVLFEKKVYLSECKTGNGKNYRGTMSKTKNGITCQKWSSTSPHRPRFSPATHPSEGLEENYCRNPDNDPQGPWCYTTDPEKRYDYCDILECEEECMHCSGENYDGKISKTMSGLECQAWDSQSPHAHGYIPSKFPNKNLKKNYCRNPDRELRPWCFTTDPNKRWELCDIPRCTTPPPSSGPTYQCLKGTGENYRGNVAVTVSGHTCQHWSAQTPHTHNRTPENFPCKNLDENYCRNPDGKRAPWCHTTNSQVRWEYCKIPSCDSSPVSTEQLAPTAPPELTPVVQDCYHGDGQSYRGTSSTTTTGKKCQSWSSMTPHRHQKTPENYPNAGLTMNYCRNPDADKGPWCFTTDPSVRWEYCNLKKCSGTEASVVAPPPVVLLPDVETPSEEDCMFGNGKGYRGKRATTVTGTPCQDWAAQEPHRHSIFTPETNPRAGLEKNYCRNPDGDVGGPWCYTTNPRKLYDYCDVPQCAAPSFDCGKPQVEPKKCPGRVVGGCVAHPHSWPWQVSLRTRFGMHFCGGTLISPEWVLTAAHCLEKSPRPSSYKVILGAHQEVNLEPHVQEIEVSRLFLEPTRKDIALLKLSSPAVITDKVIPACLPSPNYVVADRTECFITGWGETQGTFGAGLLKEAQLPVIENKVCNRYEFLNGRVQSTELCAGHLAGGTDSCQGDSGGPLVCFEKDKYILQGVTSWGLGCARPNKPGVYVRVSRFVTWIEGVMRNN
notes: plasminogen, human; also called purified plasminogen; recombinant human plasminogen
In the case of B1, the “KD after bound lysinSM1 was removed with glycine buffer pH 2.0” value in test [5] worked out at 1.68e-05 M. The Kd in test [5] came to 19.2 µM; in test [6] it was 85 µM; in test [4], 18 µM; in test [7], 10.4 µM; in test [3], 17.2 µM.

Source of the values: article PMC8263008, “Inhibition of Fibrinolysis by Streptococcal Phage LysinSM1” (mBio, 2021).
